Results published in patent US20200085917A1.

What was measured:
Experiment in all cases: GST pull-down, LC-MS/MS
[1] = target: Isca2_IPI:IPI00120671.2 (mouse) (UniProt Q9DCB8)
[2] = target: Coq3_IPI:IPI00467124.2 (mouse) (UniProt Q8BMS4)
[3] = target: Ppt1_IPI:IPI00331318.2 (mouse) (UniProt O88531)
[4] = target: Pycr2_IPI:IPI00123278.1 (mouse) (UniProt Q922Q4)
[5] = target: Brp44_IPI:IPI00131896.1 (mouse) (UniProt Q9D023)
[6] = target: Echs1_IPI:IPI00454049.4 (mouse) (UniProt Q8BH95)
[7] = target: Synj2bp_IPI:IPI00109206.1 (mouse) (UniProt Q9D6K5)
[8] = target: Arf2_IPI:IPI00135730.1 (mouse) (UniProt Q8BSL7)
[9] = target: Asah1_IPI:IPI00125266.1 (mouse) (UniProt Q9WV54)
[10] = target: Gnao1_IPI:IPI00115546.4 (mouse) (UniProt P18872)
[11] = target: Agk_IPI:IPI00113606.2 (mouse) (UniProt Q9ESW4)
[12] = target: 2900010M23Rik_IPI:IPI00133350.1 (mouse)
[13] = target: Mpst_IPI:IPI00604945.2 (mouse) (UniProt Q99J99)
[14] = target: Dsp_IPI:IPI00553419.3 (mouse) (UniProt E9Q557)
[15] = target: Tim17a (endogenous, mouse forebrain mitochondria) (mouse) (UniProt Q9Z0V8)
[16] = target: Lyrm4_IPI:IPI00169804.1 (mouse) (UniProt Q8K215)
[17] = target: Dsg1c_IPI:IPI00331259.3 (mouse) (UniProt Q7TSF0)
[18] = target: Mrpl14_IPI:IPI00133778.1 (mouse) (UniProt Q9D1I6)
[19] = target: Suclg2_IPI:IPI00459487.3 (mouse) (UniProt Q9Z2I8)
[20] = target: Tim50 (endogenous, mouse) (mouse) (UniProt Q9D880)
[21] = target: Gm561_IPI:IPI00344567.1 (mouse)
[22] = target: Acp6_IPI:IPI00624175.1 (mouse) (UniProt Q8BP40)
[23] = target: Gm6180_IPI:IPI00409405.2 (mouse)
[24] = target: 1700020C11Rik_IPI:IPI00315908.1 (mouse)
[25] = target: Asrgl1_IPI:IPI00223875.1 (mouse) (UniProt Q8C0M9)
[26] = target: Hmgcl_IPI:IPI00379694.4 (mouse) (UniProt P38060)
[27] = target: Rtn1_IPI:IPI00395193.1 (mouse) (UniProt Q8K0T0)
[28] = target: Chchd4_IPI:IPI00124389.1 (mouse) (UniProt Q8VEA4)
[29] = target: Cisd3_IPI:IPI00345740.4 (mouse) (UniProt B1AR13)
[30] = target: Tpi1_IPI:IPI00467833.6 (mouse) (UniProt P17751)
[31] = target: Gnb3_IPI:IPI00116938.1 (mouse) (UniProt Q61011)
[32] = target: Rab15_IPI:IPI00170032.1 (mouse) (UniProt Q8K386)
[33] = target: Letm1_IPI:IPI00131177.1 (mouse) (UniProt Q9Z2I0)
[34] = target: Rhot1_IPI:IPI00123186.4 (mouse) (UniProt Q8BG51)
Sequence of Rhot1_IPI:IPI00123186.4 (mouse) (Q8BG51 whole entry): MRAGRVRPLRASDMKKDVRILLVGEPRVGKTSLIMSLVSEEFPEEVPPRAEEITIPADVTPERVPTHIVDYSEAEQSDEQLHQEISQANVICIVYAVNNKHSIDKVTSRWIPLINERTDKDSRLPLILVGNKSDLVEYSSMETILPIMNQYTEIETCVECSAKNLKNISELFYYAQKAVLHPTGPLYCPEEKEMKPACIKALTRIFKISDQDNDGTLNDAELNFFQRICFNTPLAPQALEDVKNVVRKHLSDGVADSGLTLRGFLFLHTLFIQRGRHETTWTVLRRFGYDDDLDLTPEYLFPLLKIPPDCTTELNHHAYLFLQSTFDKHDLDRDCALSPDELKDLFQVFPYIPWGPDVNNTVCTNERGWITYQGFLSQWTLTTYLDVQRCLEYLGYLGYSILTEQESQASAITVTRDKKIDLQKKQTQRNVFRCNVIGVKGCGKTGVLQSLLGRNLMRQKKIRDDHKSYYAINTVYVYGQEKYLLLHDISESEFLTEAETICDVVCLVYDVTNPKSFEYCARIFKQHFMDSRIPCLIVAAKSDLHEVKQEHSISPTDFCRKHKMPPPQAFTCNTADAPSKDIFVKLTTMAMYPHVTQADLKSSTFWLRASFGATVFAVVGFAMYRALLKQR

Sequence of Rtn1_IPI:IPI00395193.1 (mouse) (Q8K0T0 whole entry): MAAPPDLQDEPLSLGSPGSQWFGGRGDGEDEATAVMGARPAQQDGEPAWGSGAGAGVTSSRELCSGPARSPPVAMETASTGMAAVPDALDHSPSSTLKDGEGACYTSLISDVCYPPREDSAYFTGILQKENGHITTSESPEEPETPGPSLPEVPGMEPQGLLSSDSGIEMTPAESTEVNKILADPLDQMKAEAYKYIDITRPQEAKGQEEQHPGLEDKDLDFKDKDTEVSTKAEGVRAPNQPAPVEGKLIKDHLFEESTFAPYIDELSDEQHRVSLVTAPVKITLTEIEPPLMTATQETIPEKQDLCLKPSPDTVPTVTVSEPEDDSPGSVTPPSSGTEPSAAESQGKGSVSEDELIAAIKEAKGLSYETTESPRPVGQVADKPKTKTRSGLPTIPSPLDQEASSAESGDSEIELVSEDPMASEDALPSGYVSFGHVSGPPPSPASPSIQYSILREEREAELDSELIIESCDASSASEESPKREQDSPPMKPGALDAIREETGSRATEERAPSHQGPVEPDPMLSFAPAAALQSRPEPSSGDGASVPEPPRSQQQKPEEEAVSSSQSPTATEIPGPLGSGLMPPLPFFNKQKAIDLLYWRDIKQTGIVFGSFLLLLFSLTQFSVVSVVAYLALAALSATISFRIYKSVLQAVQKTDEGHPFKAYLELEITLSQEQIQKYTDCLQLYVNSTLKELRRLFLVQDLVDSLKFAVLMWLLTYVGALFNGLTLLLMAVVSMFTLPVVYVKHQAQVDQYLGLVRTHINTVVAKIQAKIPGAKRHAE
Sequence of Pycr2_IPI:IPI00123278.1 (mouse) (Q922Q4 2-320 limits assumed): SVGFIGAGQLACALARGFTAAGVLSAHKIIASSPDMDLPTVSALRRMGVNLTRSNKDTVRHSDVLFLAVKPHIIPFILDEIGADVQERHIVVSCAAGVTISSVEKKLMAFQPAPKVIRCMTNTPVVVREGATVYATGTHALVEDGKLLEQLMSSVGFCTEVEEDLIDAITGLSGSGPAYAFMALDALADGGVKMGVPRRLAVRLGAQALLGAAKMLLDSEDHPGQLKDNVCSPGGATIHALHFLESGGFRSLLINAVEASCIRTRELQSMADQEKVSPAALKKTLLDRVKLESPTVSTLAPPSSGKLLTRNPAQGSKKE
Sequence of Lyrm4_IPI:IPI00169804.1 (mouse) (Q8K215 whole entry): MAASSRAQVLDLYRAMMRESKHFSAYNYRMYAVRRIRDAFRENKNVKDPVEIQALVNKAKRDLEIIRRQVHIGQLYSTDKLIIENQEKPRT
Sequence of Echs1_IPI:IPI00454049.4 (mouse) (Q8BH95 28-290 limits assumed): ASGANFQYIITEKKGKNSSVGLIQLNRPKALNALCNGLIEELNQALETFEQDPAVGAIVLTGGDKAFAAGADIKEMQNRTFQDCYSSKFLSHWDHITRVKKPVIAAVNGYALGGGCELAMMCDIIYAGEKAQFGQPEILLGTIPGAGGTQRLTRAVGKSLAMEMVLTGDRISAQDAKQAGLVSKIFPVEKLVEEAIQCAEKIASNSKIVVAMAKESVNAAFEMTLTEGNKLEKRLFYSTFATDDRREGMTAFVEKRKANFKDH
Sequence of Asrgl1_IPI:IPI00223875.1 (mouse) (Q8C0M9 whole entry): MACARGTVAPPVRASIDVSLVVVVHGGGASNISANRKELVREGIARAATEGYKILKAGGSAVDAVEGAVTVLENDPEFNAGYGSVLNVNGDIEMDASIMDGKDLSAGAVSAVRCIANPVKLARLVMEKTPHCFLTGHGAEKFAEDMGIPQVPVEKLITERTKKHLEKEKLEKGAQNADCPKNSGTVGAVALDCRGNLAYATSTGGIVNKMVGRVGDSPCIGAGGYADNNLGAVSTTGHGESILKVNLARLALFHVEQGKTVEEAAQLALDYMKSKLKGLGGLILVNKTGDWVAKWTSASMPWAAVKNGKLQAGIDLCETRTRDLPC
Sequence of Synj2bp_IPI:IPI00109206.1 (mouse) (Q9D6K5 whole entry): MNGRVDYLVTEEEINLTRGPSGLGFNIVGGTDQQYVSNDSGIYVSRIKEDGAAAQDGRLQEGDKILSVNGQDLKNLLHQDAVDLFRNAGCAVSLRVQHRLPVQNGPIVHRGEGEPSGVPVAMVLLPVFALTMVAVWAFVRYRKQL
Sequence of Isca2_IPI:IPI00120671.2 (mouse) (Q9DCB8 9-154 limits assumed): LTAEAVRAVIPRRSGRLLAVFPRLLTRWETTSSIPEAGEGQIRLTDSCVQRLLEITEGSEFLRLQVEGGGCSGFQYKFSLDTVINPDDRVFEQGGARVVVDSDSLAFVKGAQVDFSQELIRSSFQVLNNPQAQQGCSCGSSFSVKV
Sequence of Acp6_IPI:IPI00624175.1 (mouse) (Q8BP40 26-418 limits assumed): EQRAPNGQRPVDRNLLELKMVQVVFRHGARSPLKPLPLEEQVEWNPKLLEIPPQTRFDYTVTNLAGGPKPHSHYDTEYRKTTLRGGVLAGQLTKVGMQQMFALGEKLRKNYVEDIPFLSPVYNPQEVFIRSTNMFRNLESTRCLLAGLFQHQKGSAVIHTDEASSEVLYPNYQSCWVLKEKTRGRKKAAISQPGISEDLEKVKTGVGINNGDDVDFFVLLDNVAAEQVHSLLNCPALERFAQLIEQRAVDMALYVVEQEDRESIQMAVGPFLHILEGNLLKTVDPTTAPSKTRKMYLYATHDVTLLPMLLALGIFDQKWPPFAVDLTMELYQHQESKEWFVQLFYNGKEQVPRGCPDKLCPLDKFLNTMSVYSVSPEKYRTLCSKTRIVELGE
Sequence of Tim50 (endogenous, mouse) (mouse) (Q9D880 22-353 limits assumed): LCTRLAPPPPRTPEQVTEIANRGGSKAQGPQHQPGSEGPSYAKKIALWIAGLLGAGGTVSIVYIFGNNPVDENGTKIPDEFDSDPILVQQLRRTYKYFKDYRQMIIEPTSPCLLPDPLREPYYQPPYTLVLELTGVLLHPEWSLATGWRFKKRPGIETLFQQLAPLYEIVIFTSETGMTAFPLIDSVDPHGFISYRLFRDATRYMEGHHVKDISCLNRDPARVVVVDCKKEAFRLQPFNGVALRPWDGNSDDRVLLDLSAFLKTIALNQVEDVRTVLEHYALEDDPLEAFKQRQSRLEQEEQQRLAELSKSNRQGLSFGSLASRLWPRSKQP
Sequence of Gnb3_IPI:IPI00116938.1 (mouse) (Q61011 whole entry): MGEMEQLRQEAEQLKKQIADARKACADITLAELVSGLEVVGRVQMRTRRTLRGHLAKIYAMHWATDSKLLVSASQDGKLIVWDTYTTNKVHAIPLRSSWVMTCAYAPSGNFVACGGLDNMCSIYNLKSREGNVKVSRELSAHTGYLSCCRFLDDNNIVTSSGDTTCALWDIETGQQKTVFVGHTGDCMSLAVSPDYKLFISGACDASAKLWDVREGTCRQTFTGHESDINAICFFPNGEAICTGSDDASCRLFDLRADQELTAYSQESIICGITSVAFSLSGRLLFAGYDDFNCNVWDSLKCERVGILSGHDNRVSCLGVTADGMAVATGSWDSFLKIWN
Sequence of Suclg2_IPI:IPI00459487.3 (mouse) (Q9Z2I8 39-433 limits assumed): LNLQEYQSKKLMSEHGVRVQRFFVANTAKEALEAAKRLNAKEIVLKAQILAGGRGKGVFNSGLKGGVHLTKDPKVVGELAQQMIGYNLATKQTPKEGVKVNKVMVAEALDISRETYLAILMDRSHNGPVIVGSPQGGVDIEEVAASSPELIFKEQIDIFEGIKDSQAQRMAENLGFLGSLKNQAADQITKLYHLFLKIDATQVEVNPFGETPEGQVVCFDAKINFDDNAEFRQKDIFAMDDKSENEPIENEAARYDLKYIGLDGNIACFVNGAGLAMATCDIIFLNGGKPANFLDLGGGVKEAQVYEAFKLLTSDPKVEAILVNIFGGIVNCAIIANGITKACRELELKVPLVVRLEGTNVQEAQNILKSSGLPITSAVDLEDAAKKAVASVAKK
Sequence of Mpst_IPI:IPI00604945.2 (mouse) (Q99J99 2-297 limits assumed): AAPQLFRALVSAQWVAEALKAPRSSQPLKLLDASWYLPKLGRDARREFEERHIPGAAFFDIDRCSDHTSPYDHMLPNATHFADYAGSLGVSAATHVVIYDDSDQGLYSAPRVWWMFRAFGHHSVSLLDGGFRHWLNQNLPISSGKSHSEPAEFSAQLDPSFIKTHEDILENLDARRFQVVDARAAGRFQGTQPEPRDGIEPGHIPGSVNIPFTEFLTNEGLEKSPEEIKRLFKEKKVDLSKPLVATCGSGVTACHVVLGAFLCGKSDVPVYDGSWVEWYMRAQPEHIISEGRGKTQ
Sequence of Tim17a (endogenous, mouse forebrain mitochondria) (mouse) (Q9Z0V8 whole entry): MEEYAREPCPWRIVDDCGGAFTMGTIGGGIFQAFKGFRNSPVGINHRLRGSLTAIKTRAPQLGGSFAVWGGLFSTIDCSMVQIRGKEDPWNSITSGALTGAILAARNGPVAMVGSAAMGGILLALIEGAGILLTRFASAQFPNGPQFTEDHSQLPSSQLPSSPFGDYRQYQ
Sequence of 1700020C11Rik_IPI:IPI00315908.1 (mouse) (Q9CRB8 whole entry): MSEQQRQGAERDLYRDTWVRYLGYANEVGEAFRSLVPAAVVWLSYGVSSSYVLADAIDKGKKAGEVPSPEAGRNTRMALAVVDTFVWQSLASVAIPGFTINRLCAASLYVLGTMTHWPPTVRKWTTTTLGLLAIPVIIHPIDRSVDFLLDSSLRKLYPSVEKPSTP

- No. of total peptides [1]: 3 peptides
- No. of unique peptides [1]: 3 peptides
- No. of total peptides [2]: 2 peptides
- No. of unique peptides [2]: 1 peptides
- No. of total peptides [3]: 1 peptides
- No. of unique peptides [3]: 1 peptides
- No. of total peptides [4]: 1 peptides
- No. of unique peptides [4]: 1 peptides
- No. of total peptides [5]: 5 peptides
- No. of unique peptides [5]: 5 peptides
- No. of total peptides [6]: 5 peptides
- No. of unique peptides [6]: 5 peptides
- No. of total peptides [7]: 1 peptides
- No. of unique peptides [7]: 1 peptides
- No. of total peptides [8]: 3 peptides
- No. of unique peptides [8]: 3 peptides
- No. of total peptides [9]: 3 peptides
- No. of unique peptides [9]: 3 peptides
- No. of total peptides [10]: 3 peptides
- No. of unique peptides [10]: 3 peptides
- No. of total peptides [11]: 1 peptides
- No. of unique peptides [11]: 1 peptides
- No. of total peptides [12]: 1 peptides
- No. of unique peptides [12]: 1 peptides
- No. of total peptides [13]: 4 peptides
- No. of unique peptides [13]: 4 peptides
- No. of total peptides [14]: 4 peptides
- No. of unique peptides [14]: 4 peptides
- No. of total peptides [15]: 1 peptides
- No. of unique peptides [15]: 1 peptides
- No. of total peptides [16]: 1 peptides
- No. of unique peptides [16]: 1 peptides
- No. of total peptides [17]: 1 peptides
- No. of unique peptides [17]: 1 peptides
- No. of total peptides [18]: 4 peptides
- No. of unique peptides [18]: 3 peptides
- No. of total peptides [19]: 2 peptides
- No. of unique peptides [19]: 2 peptides
- No. of total peptides [20]: 3 peptides
- No. of unique peptides [20]: 3 peptides
- No. of total peptides [21]: 2 peptides
- No. of unique peptides [21]: 2 peptides
- No. of total peptides [22]: 2 peptides
- No. of unique peptides [22]: 2 peptides
- No. of total peptides [23]: 1 peptides
- No. of unique peptides [23]: 1 peptides
- No. of total peptides [24]: 1 peptides
- No. of unique peptides [24]: 1 peptides
- No. of total peptides [25]: 1 peptides
- No. of unique peptides [25]: 1 peptides
- No. of total peptides [26]: 1 peptides
- No. of unique peptides [26]: 1 peptides
- No. of total peptides [27]: 1 peptides
- No. of unique peptides [27]: 1 peptides
- No. of total peptides [28]: 1 peptides
- No. of unique peptides [28]: 1 peptides
- No. of total peptides [29]: 1 peptides
- No. of unique peptides [29]: 1 peptides
- No. of total peptides [30]: 1 peptides
- No. of unique peptides [30]: 1 peptides
- No. of total peptides [31]: 1 peptides
- No. of unique peptides [31]: 1 peptides
- No. of total peptides [32]: 1 peptides
- No. of unique peptides [32]: 1 peptides
- No. of total peptides [33]: 4 peptides
- No. of unique peptides [33]: 4 peptides
- No. of total peptides [34]: 1 peptides
- No. of unique peptides [34]: 1 peptides
Substance: GST-Httex1-97Q (from UniProt P08515 1-218; P42858 1-88)
